Target: the molecule itself
Test: SEC

B1: A3A H29R (enzyme)
chain: not shown
stoichiometry N: 2

Reference: paper PMC7211764 (Biochemistry, 2019)
